Results as given in US20030157712.

Target: GST-EphB1cy, self-phosphorylated in vitro (+ATP) (UniProt P54762)
Sequence (P54762 564-984): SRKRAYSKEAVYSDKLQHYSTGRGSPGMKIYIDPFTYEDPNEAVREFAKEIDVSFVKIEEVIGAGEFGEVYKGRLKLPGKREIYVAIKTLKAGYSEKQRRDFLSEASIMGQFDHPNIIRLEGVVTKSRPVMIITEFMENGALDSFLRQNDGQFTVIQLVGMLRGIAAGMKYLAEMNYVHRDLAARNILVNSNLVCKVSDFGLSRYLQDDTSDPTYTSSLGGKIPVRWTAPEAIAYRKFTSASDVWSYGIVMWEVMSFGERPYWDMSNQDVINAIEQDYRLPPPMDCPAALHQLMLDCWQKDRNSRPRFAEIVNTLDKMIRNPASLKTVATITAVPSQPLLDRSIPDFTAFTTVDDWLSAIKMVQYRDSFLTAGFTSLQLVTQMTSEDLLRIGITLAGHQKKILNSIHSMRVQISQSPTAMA

purified recombinant LMW-PTP (A isoform)
in vitro tyrosine phosphorylation of LMW-PTP: EphB1 receptor tyrosine kinase phosphorylates LMW-PTP in vitro
